Stoichiometry N and bands in the oligomer ladder data for 13 substances are collected here from PMC12609122.

Some results are limits rather than exact numbers.

Experiment [1] concerns the target Tha4 A65CT78C (E10 background) (Pisum sativum). The experiment in a line: cross-linking; radiolabelled double-Cys Tha4 integrated into NEM-treated pea thylakoids; 0.25 mM BMOE, 10 min; four conditions: with or without precursor (V-20F)tOE17 (1.5 uM), with PMF (light, 15 °C) or without (dark, on ice; 0.5 uM nigericin and 1 uM valinomycin); SDS-PAGE and fluorography; result as told over the conditions.

In experiment [2] the target is Tha4 E10A A18CL20C (Pisum sativum). As to the kind of experiment: cross-linking; as a1, the sample with the functional precursor (V-20F)tOE17 and with PMF (light).
Experiment [3] concerns the target Tha4 E10A F41CA45C (Pisum sativum). As to the kind of experiment: cross-linking; radiolabelled double-Cys Tha4 integrated into NEM-treated pea thylakoids; 0.25 mM BMOE, 10 min; four conditions: with or without precursor (V-20F)tOE17 (1.5 uM), with PMF (light, 15 °C) or without (dark, on ice; 0.5 uM nigericin and 1 uM valinomycin); SDS-PAGE and fluorography; result as told over the conditions.

In experiment [4] the target is Tha4 E10A P56CP58C (Pisum sativum). The description is as above.
The target of experiment [5] is Tha4 E10A V8CP9C (Pisum sativum). Described as above.
For experiment [6], the target named is Tha4 E10A V21CG23C (Pisum sativum). The experiment is described as above.
Experiment [7] concerns the target Tha4 E10D K39CQ43C (Pisum sativum). The experiment is described as above.
For experiment [8], the target named is Tha4 E10D P56CP58C (Pisum sativum). The description is as above.
For experiment [9], the target named is Tha4 E10D V8CP9C (Pisum sativum). Described as above.
For experiment [10], the target named is Tha4 P56CP58C (E10 background) (Pisum sativum). The experiment is described as above.
For experiment [11], the target named is Tha4 V8CP9C (E10 background) (Pisum sativum). The experiment in a line: cross-linking; as a1, the samples with the functional precursor (V-20F)tOE17 (1.5 uM), with or without PMF.
Experiment [12] shares this target. The experiment in a line: cross-linking; radiolabelled double-Cys Tha4 integrated into NEM-treated pea thylakoids; 0.25 mM BMOE, 10 min; four conditions: with or without precursor (V-20F)tOE17 (1.5 uM), with PMF (light, 15 °C) or without (dark, on ice; 0.5 uM nigericin and 1 uM valinomycin); SDS-PAGE and fluorography; result as told over the conditions.
Experiment [13] addresses Tha4 V13CI14C (E10 background) (Pisum sativum). Described as above.
Experiment [14] concerns the target Tha4 V21CG23C (E10 background) (Pisum sativum). The description is as above.

Usually stoichiometry N stands for a count of units in the complex or per binding partner.

On to “Tha4 A65CT78C (E10 background) (natural protein)”, for which, in experiment [1], the stoichiometry N was less than 5.

Take Tha4 E10A A18CL20C (natural protein): the stoichiometry N in experiment [2] was less than 4.

In the case of Tha4 E10A F41CA45C (natural protein), the stoichiometry N in experiment [3] was less than 6.

In [4], Tha4 E10A P56CP58C (natural protein) yielded a stoichiometry N of less than 4.

In [5], Tha4 E10A V8CP9C (natural protein) gave a stoichiometry N of less than 6.

Tha4 E10A V21CG23C (natural protein) registered a stoichiometry N in experiment [6] of less than 10.

For Tha4 E10D K39CQ43C (natural protein), the stoichiometry N in [7] is less than 4.

In turn, Tha4 E10D P56CP58C (natural protein) registered a stoichiometry N in experiment [8] of less than 4.

Regarding Tha4 E10D V8CP9C (natural protein), the stoichiometry N in experiment [9] is less than 6.

“Tha4 P56CP58C (E10 background) (natural protein)”: in experiment [10], the stoichiometry N was less than 4.

With “Tha4 V8CP9C (E10 background) (natural protein)”, the stoichiometry N in experiment [11] was less than 6; in experiment [12] it was less than 4.

The substance “Tha4 V13CI14C (E10 background) (natural protein)” returned a stoichiometry N in experiment [13] of less than 6.

“Tha4 V21CG23C (E10 background) (natural protein)” showed a bands in the oligomer ladder in [14] of less than 6 bands.
